Source: the supplement of paper PMC9170038

System: MS2 coat protein
Assay: apparent KD of MS2 coat protein; designed switch direction (-1 OFF switch, 1 ON switch): -1; higher = weaker reporter binding
Method in brief: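 The reported apparent KD is a per-design median over clusters, from curve fits of normalised cluster fluorescence. Protein titrations used SNAP-549-labelled MS2 coat protein, doubled from 0.7 or 1.5 nM to 3 µM, in Tris-HCl pH 7.5 buffer with KCl, MgCl2, BSA, DTT, tRNA and Tween-20, with no input, 200 uM small-molecule ligand, or an oligonucleotide input. The RNA switches were transcribed on Illumina chips by stalled E. coli RNA polymerase.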

[1] = Eterna round: R95, input ligand: FMN 200 uM
[2] = Eterna round: R95, input ligand: microRNA oligo, concentration not stated
[3] = Eterna round: R95, input ligand: none
[4] = input ligand: microRNA oligo, concentration not stated

| Sequence | apparent KD of MS2 coat protein [1] | apparent KD of MS2 coat protein [2] | apparent KD of MS2 coat protein [3] | apparent KD of MS2 coat protein (input ligand: FMN 200 uM) | apparent KD of MS2 coat protein [4] | apparent KD of MS2 coat protein (input ligand: none) |
| --- | --- | --- | --- | --- | --- | --- |
| AAGGUGUUAGGAUAUCGGAGGUUGAGGCAGACGGGAAUUUUCGAGAAGGAACAUGAGGAUCACCCAUGUAGUAG [JR_Exclu4_Sub038] (puzzle: Exclusion 4) | 19.1 nM | 22.7 nM | 21.3 nM |  |  |  |
| AACCUGAGGCAAAGCUUUAGGUGUACAUGAGGAUCACCCAUGUAGGAUAUGGUAGGCUUUGCUUACCAGAAGGACAUAAUGAUG [Mat - Exclusion NG 3 - Mod of JL - D46] (Eterna round: R96, puzzle: Exclusion NG 3) |  |  |  | 92.2 nM | 42 nM | 53.3 nM |
| AUAUUGUGAGGAUAUGAACUUAGUAUCGAAAGAUACUAAGUACAGAAGGCACAUGAGGAUCACCCAUGUUUCUC [Long static hairpin v2] (Eterna round: R97, puzzle: Exclusion 4) |  |  |  | 418 nM |  | 85.7 nM |
| CCGGAAUAGCAGGAUAUAGGAGUCGAUAGACACCUAGAAGGGUUGACAUGAGGAUCACCCAUGUGUCCUACCGG [Fiskers Ex 6 - 82] (puzzle: Exclusion 6) | 322 nM | 247 nM | 519 nM |  |  |  |
| UAAAAUAGUGUGAGGAUAUGCUGGUCCUUGGAUCAGCAGAAGGCACAUGAGGAUCACCCAUGUAGUUAAUUAUA [Mat - Exclusion 4 - JL Mod - D24] (puzzle: Brourd's mod of Exclusion 4) |  | 36.8 nM |  |  |  |  |
| GGUAGAGUGGUAGGAUAUCCGGCUGUUUCAGUCGGAGAAGGACCACAGUCACUGGGUCCAAAUAUGGGUGACCAUGUAUCUACC [pwkr exNG1 F6.6] (Eterna round: R96, puzzle: Exclusion NG 1) |  |  |  | 984 nM | 337 nM | 371 nM |
| AAUAACAUGUUGAUCAAAUACAUGAGGAUCACCCAUGUAAGCUUUUUGUUCGUAGAUUAACACUAAUAAUAAUAAUA [Stov1new/2-B] (Eterna round: R97, puzzle: Sensor, turn-off variant 1) |  |  |  | 15.8 nM |  | 16.7 nM |
| AAAUAACAAGCGAGAUCCUACAUGAGGAUCACCCAUGUGCUCGUCUUAAUAAGUACUAUCACGAAAGUGAUAGUACA [Mat - Sensor v3 - turn-off var 1 - Eli Mod - D67] (puzzle: Sensor v3, turn-off variant 1) | 16.6 nM | 471 nM | 16 nM |  |  |  |
| AACCAACAUGAGGAUCACCCAUGUGAGGAUAUAGCUAACGACCAGACCUGGAAUGUUGUUAGAAGGUGCAGGGU [Eternabot (Original) Solution 4] (Eterna round: R97, puzzle: Exclusion 1) |  |  |  | 44.4 nM |  | 36.2 nM |
| AAUAAUAAGGAGGAUAUCGUAUCGGAAACGAUACGAGAAGGCCUAACAUGAGGAUCACCCAUGUUCCUCAAUAA [Fiskers Ex 6 - 2] (puzzle: Exclusion 6) | 1320 nM | 297 nM | 311 nM |  |  |  |
| CAAAACUGAGGAUAUACAUGAGGAUCACCCAUGUCCAAGGUCCUGGGCGGAUGCUGCUGUAGAAGGCGGAAAGA [Diatsobi] (puzzle: Exclusion 3) |  | 21.8 nM |  |  |  |  |
| CCUCUACAUGAGGAUCACCCAUGUGAGGAUAUCAGUGCAAAGGGCACGUAUUAAAACGUGAGAAGGCACAUGGG [EX1 A.17] (Eterna round: R97, puzzle: Exclusion 1) |  |  |  | 88.9 nM |  | 135 nM |
| AAGUACCGUCACGAUAGUGAUGGUACAACAAGCAUGUAAACAUGAGGAUCACCCAUGUCCUCAAUUGCUCGUCUUAU [Sensor 3 - 68] (Eterna round: R96, puzzle: Sensor v3, turn-off variant 2) |  |  |  | 956 nM | 809 nM | 1060 nM |
| GGCUAGUGAGGAUAUACGUGCACUCCUCAGUCGCCAGUCGGACAUGAGGAUCACCCAUGUAGAAGGUAUCGGCA [Qusoceus] (puzzle: Exclusion 2) |  | 24 nM |  |  |  |  |
